From publication doi:10.1101/641308 come the findings set out here.

The target in this assay is OcwA (Outer cell-wall protein A), nonaheme cytochrome TherJR_2595 from Thermincola potens JR (Thermincola potens JR). As to the kind of experiment: SEC. A general note: Size exclusion chromatography separates by hydrodynamic size, large species first.

The stoichiometry N is the number of molecules, sites or subunits per partner or assembly. In turn, “OcwA (Outer cell-wall protein A), nonaheme cytochrome TherJR_2595 from Thermincola potens JR (natural protein)” came in with a stoichiometry N of 2.
